± gives the uncertainty stated by the source.
Assay: protein stability index of a GFP-peptide fusion (yeast GPS) (PSI 1-4); higher = more stable; sorted into four equal gates, so the index is relative within each strain
How it was run: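 Yeast carrying a pooled library were grown to mid-log phase in leucine-free medium. Each library plasmid expresses Cherry and has a tiled 17-residue yeast protein peptide fused downstream of GFP. Cells were sorted into four equal gates by GFP/Cherry ratio, and plasmids from each gate were PCR-amplified, Illumina-sequenced and assigned to strains by barcode. Summing, across gates, the read frequency times the gate number gave each peptide's protein stability index.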

Sequence | protein stability index (doa10∆) | protein stability index (pdr5∆) | protein stability index (san1∆) | protein stability index (ubr1∆)
SAKGPEIIPLQDYYIIG [MED6] | 3.18 ± 0.098 | 3.14 ± 0.054 | 3.14 ± 0.044 | 3.31 ± 0.063
SAKTRSHNWAAKAKRRH [RPL37B] | 3.42 ± 0.093 | 3.32 ± 0.071 | 3.31 ± 0.059 | 3.41 ± 0.042
SALEQAIIYQRGKDGKL [YGL100W/SEH1] | 2.93 ± 0.073 | 3.22 ± 0.051 | 3.15 ± 0.047 | 3 ± 0.06
SAMPAPYMPYYYYYHPM [DSN1] | 2.4 ± 0.058 | 2.87 ± 0.056 | 2.74 ± 0.049 | 2.84 ± 0.042
SANTNNTCTISTSKFES [SWP82] | 2.59 ± 0.055 | 2.51 ± 0.07 | 2.43 ± 0.055 | 2.13 ± 0.04
SARGIETRPAQVILPMS [FAS2] | 3.06 ± 0.08 | 2.93 ± 0.073 | 3 ± 0.068 | 3.16 ± 0.082
SASFSLKNGDKPHLLKF [RPL6B] | 2.4 ± 0.16 | 2.42 ± 0.23 | 3.25 ± 0.14 | 3.42 ± 0.16
SASLHLNYGVYLNGTLI [RET1] | 2.65 ± 0.16 | – | 3.09 ± 0.1 | 3.18 ± 0.092
SASTSATGISGSVSEET [ECM29] | 3.34 ± 0.047 | 3.25 ± 0.047 | 3.12 ± 0.041 | 3.33 ± 0.042
SCQIAQPYEDRPFEGLF [RRP45] | 3.33 ± 0.24 | 3.26 ± 0.095 | 3.15 ± 0.086 | –
SCSFFAKLSDTLIIDQV [NUT1] | 2.22 ± 0.052 | 1.79 ± 0.051 | 2.06 ± 0.11 | 1.91 ± 0.039
SDAMSIDEEDKDSESFS [YCG1] | 2.85 ± 0.15 | 1.95 ± 0.1 | 2.61 ± 0.13 | 2.4 ± 0.069
SDEEENNNNKSINKNNK [SSN2] | 2.94 ± 0.07 | 3.02 ± 0.079 | 2.72 ± 0.065 | 3.07 ± 0.08
SDEKKDGDASKPAFSFG [YJL041W/NSP1] | 3.24 ± 0.092 | 2.64 ± 0.23 | 3.25 ± 0.056 | 3.23 ± 0.1
SDELHNQSTIYEDEELS [LIN1] | 3 ± 0.079 | 2.87 ± 0.098 | 3.11 ± 0.07 | 2.97 ± 0.077
SDIESLEALMDILLCYQ [SRB8] | 2.84 ± 0.13 | 2.74 ± 0.2 | 3.03 ± 0.19 | 2.29 ± 0.2
SDIKQGYTQHGGLRPFG [PRE9] | 3.5 ± 0.13 | 2.53 ± 0.23 | 3.58 ± 0.15 | –
SDINQNDDSSSMNATMR [YDL088C/ASM4] | 2.88 ± 0.09 | 2.98 ± 0.075 | 2.76 ± 0.073 | 2.69 ± 0.054
SDLKGKLSSAENANADL [YIL149C/MLP2] | 3.37 ± 0.15 | 3.35 ± 0.1 | 3.17 ± 0.12 | 3.17 ± 0.071
SDLNLTDRQKKLLGVDM [YLR018C/POM34] | 3.17 ± 0.052 | 3.09 ± 0.055 | 3.19 ± 0.039 | 3.23 ± 0.039
SDMENDNLLLNLEQINE [REC8] | 2.76 ± 0.056 | 2.75 ± 0.048 | 2.72 ± 0.06 | 2.86 ± 0.048
SDNSVSVRLQVTKILPH [IRR1] | 2.86 ± 0.15 | 2.92 ± 0.12 | 2.74 ± 0.097 | 3.04 ± 0.074
SDREMAALIASKVYYNL [RPN2] | 1.91 ± 0.06 | 1.83 ± 0.056 | 1.5 ± 0.055 | 1.7 ± 0.045
SDSETNHKSKDNNNGDD [SKP1] | 2.9 ± 0.054 | 3.17 ± 0.051 | 3.11 ± 0.04 | 3.15 ± 0.045
SDSIELLKQYPKDSSST [YJR042W/NUP85] | 2.62 ± 0.047 | 2.77 ± 0.051 | 2.61 ± 0.044 | 2.82 ± 0.041

Sequence | protein stability index (doa10∆) | protein stability index (pdr5∆) | protein stability index (san1∆) | protein stability index (ubr1∆)
SDSLDIAQGIDLVRDID [SRP72] | 3.29 ± 0.11 | 3.38 ± 0.088 | 3.09 ± 0.077 | 3.26 ± 0.1
SEAEQIDTSKNLENMSI [YCG1] | 3.3 ± 0.073 | 3.28 ± 0.068 | 3.17 ± 0.068 | 2.99 ± 0.069
SEAFPSLQSCSVAVHFQ [SMC4] | 1.77 ± 0.1 | 2.09 ± 0.082 | 2.39 ± 0.095 | 1.79 ± 0.056
SEEKIRDYSKEILGINL [SIR4] | 3.17 ± 0.14 | 3.03 ± 0.083 | 2.88 ± 0.073 | 3.06 ± 0.064
SEETQFKYVEDRFPLKL [ITC1] | 3.47 ± 0.13 | 3.09 ± 0.13 | 3.27 ± 0.09 | 3.01 ± 0.14
SEFLNVPFESLQGVTYP [YIL149C/MLP2] | 2.94 ± 0.086 | 2.56 ± 0.078 | 2.72 ± 0.091 | 2.96 ± 0.063
SEGEQKSAEGNNIDQSL [YAR002W/NUP60] | 2.98 ± 0.063 | 2.94 ± 0.048 | 2.94 ± 0.066 | 3.05 ± 0.065
SEGSGSSLVQKGLETID [RPC53] | 3.35 ± 0.16 | 3.14 ± 0.14 | – | 3.08 ± 0.063
SEGYQKTFSRLDALTRH [RPN4] | 1.17 ± 0.091 | 1.56 ± 0.15 | 1.06 ± 0.24 | –
SEISDGKLKRCSRCGSV [SIN4] | 3.33 ± 0.17 | 3.4 ± 0.14 | 3.36 ± 0.11 | 3.59 ± 0.11
SEVRKAVSIETALEHKV [FAS2] | 1.67 ± 0.12 | 1.4 ± 0.095 | 1.35 ± 0.12 | 1.39 ± 0.051
SFALPFEEDEKNSDVWF [RPN8] | 3.28 ± 0.08 | 3.23 ± 0.072 | 3.14 ± 0.051 | 3.26 ± 0.06
SFCGFLLYYIPSLELSA [YJR042W/NUP85] | 1.65 ± 0.051 | 1.58 ± 0.065 | 1.57 ± 0.1 | 1.95 ± 0.059
SFDAVSDSIELLKQYPK [YJR042W/NUP85] | 2.86 ± 0.083 | 3.16 ± 0.085 | 2.56 ± 0.11 | 2.59 ± 0.087
SFHVQKKTCSSCGYPAA [RPL37A] | 1.85 ± 0.091 | 2.13 ± 0.11 | 1.71 ± 0.16 | 2.06 ± 0.068
SFILSSLEDPQVRKKQI [YDL116W/NUP84] | 1.94 ± 0.11 | 2.09 ± 0.079 | 2.44 ± 0.098 | 3 ± 0.1
SFKIFVDVLVISSHSHP [RRP42] | 1.21 ± 0.043 | 1.21 ± 0.047 | 1.19 ± 0.07 | 1.39 ± 0.032
SFLEKPKFAIQDNHHIT [YMR129W/POM152] | 2.89 ± 0.074 | 2.81 ± 0.081 | 2.81 ± 0.051 | 2.76 ± 0.089
SFLKEGDLLNAEVQSLF [RRP4] | 2.57 ± 0.058 | 3.03 ± 0.091 | 3.04 ± 0.059 | 2.8 ± 0.067
SFLSKHALYLAPSGIRM [SSN2] | 2.12 ± 0.067 | 1.56 ± 0.059 | 1.46 ± 0.12 | 2.19 ± 0.086
SFNIPRLTFKPWVVYLQ [YMR129W/POM152] | 1.2 ± 0.055 | 1.29 ± 0.055 | 1.09 ± 0.1 | 1.04 ± 0.042
SFQKKSNDKVVEWINPS [ISW2] | 3.12 ± 0.069 | 3.39 ± 0.072 | 3.1 ± 0.12 | 3.19 ± 0.088
SFTNYITRSFKEPRLVI [RPS0A] | 2.74 ± 0.09 | 2.79 ± 0.068 | 2.55 ± 0.068 | 2.83 ± 0.074
SFTSATERHIQVGDGLE [PRE7] | 2.79 ± 0.098 | 2.56 ± 0.075 | 3.35 ± 0.091 | 2.85 ± 0.049
SGCENITDKTIESIVNL [GRR1] | 2.81 ± 0.13 | 2.94 ± 0.099 | 1.54 ± 0.19 | 2.98 ± 0.078
